The chains are these.
B1: Retinoic acid receptor beta, residues 85 to 161; numbered along this chain, P10826 (parent)
chain: YKPCFVCQDKSSGYHYGVSACEGCKGFFRRSIQKNMIYTCHRDKNCVINKVTRNRCQYCRLQKCFEVGMSKESVRND

± gives the uncertainty stated by the source.

In the data set the parent is B1. Nature of the data set: abundance fitness (aPCA) (normalised: wild type 0, dead -1); higher = more abundant; growth selection in yeast, the domain comes from the species named. The settings on record: Homo sapiens.
Take YKPCFVCQDKSSGYHYGVSACEGCKGFFRRMIQKNMIYTCHRDKNCVINKVTRNRCQYCRLQKCFEVGMSKESVRND: the abundance fitness is -0.486 ± 0.11.

For the variant YKPCFVCQDKSSGYHYGVSACEGCKGFFRRIIQKNMIYTCHRDKNCVINKVTRNRCQYCRLQKCFEVGMSKESVRND, the abundance fitness is -0.413 ± 0.17.

For YKPCFVCQDKSSGYHYGVSACEGCKGFFRRTIQKNMIYTCHRDKNCVINKVTRNRCQYCRLQKCFEVGMSKESVRND, the abundance fitness turned out to be 0.148 ± 0.056.

In the case of YKPCFVCQDKSSGYHYGVSACEGCKGFFRRVIQKNMIYTCHRDKNCVINKVTRNRCQYCRLQKCFEVGMSKESVRND, the abundance fitness is -0.341 ± 0.054.

In the case of YKPCFVCQDKSSGYHYGVSACEGCKGFFRRPIQKNMIYTCHRDKNCVINKVTRNRCQYCRLQKCFEVGMSKESVRND, the abundance fitness is -0.611 ± 0.19.

YKPCFVCQDKSSGYHYGVSACEGCKGFFRRLIQKNMIYTCHRDKNCVINKVTRNRCQYCRLQKCFEVGMSKESVRND: the abundance fitness was -0.6 ± 0.09.

YKPCFVCQDKSSGYHYGVSACEGCKGFFRRYIQKNMIYTCHRDKNCVINKVTRNRCQYCRLQKCFEVGMSKESVRND: the abundance fitness was -0.51 ± 0.2.

In the case of YKPCFVCQDKSSGYHYGVSACEGCKGFFRREIQKNMIYTCHRDKNCVINKVTRNRCQYCRLQKCFEVGMSKESVRND, the abundance fitness was -0.505 ± 0.086.

In the case of YKPCFVCQDKSSGYHYGVSACEGCKGFFRRRIQKNMIYTCHRDKNCVINKVTRNRCQYCRLQKCFEVGMSKESVRND, the abundance fitness was -0.559 ± 0.058.

As to YKPCFVCQDKSSGYHYGVSACEGCKGFFRRGIQKNMIYTCHRDKNCVINKVTRNRCQYCRLQKCFEVGMSKESVRND, the abundance fitness was -0.774 ± 0.079.

YKPCFVCQDKSSGYHYGVSACEGCKGFFRRWIQKNMIYTCHRDKNCVINKVTRNRCQYCRLQKCFEVGMSKESVRND: the abundance fitness was -0.09 ± 0.045.

YKPCFVCQDKSSGYHYGVSACEGCKGFFRRCIQKNMIYTCHRDKNCVINKVTRNRCQYCRLQKCFEVGMSKESVRND: the abundance fitness is -0.12 ± 0.06.

For YKPCFVCQDKSSGYHYGVSACEGCKGFFRRNIQKNMIYTCHRDKNCVINKVTRNRCQYCRLQKCFEVGMSKESVRND, the abundance fitness was -0.508 ± 0.29.

In the case of YKPCFVCQDKSSGYHYGVSACEGCKGFFRRSIQVNMIYTCHRDKNCVINKVTRNRCQYCRLQKCFEVGMSKESVRND, the abundance fitness was -0.145 ± 0.039.

As for YKPCFVCQDKSSGYHYGVSACEGCKGFFRRSIQINMIYTCHRDKNCVINKVTRNRCQYCRLQKCFEVGMSKESVRND, the abundance fitness was -0.371 ± 0.12.

With YKPCFVCQDKSSGYHYGVSACEGCKGFFRRSIQFNMIYTCHRDKNCVINKVTRNRCQYCRLQKCFEVGMSKESVRND, the abundance fitness stood at 0.014 ± 0.092.

On to YKPCFVCQDKSSGYHYGVSACEGCKGFFRRSIQCNMIYTCHRDKNCVINKVTRNRCQYCRLQKCFEVGMSKESVRND, for which the abundance fitness was -0.05 ± 0.054.

In the case of YKPCFVCQDKSSGYHYGVSACEGCKGFFRRSIQTNMIYTCHRDKNCVINKVTRNRCQYCRLQKCFEVGMSKESVRND, the abundance fitness was -0.06 ± 0.056.

For YKPCFVCQDKSSGYHYGVSACEGCKGFFRRSIQYNMIYTCHRDKNCVINKVTRNRCQYCRLQKCFEVGMSKESVRND, the abundance fitness was -0.007 ± 0.086.

As to YKPCFVCQDKSSGYHYGVSACEGCKGFFRRSIQNNMIYTCHRDKNCVINKVTRNRCQYCRLQKCFEVGMSKESVRND, the abundance fitness was determined as 0.089 ± 0.1.

YKPCFVCQDKSSGYHYGVSACEGCKGFFRRSIQDNMIYTCHRDKNCVINKVTRNRCQYCRLQKCFEVGMSKESVRND: the abundance fitness was determined as 0.33 ± 0.062.

For YKPCFVCQDKSSGYHYGVSACEGCKGFFRRSIQPNMIYTCHRDKNCVINKVTRNRCQYCRLQKCFEVGMSKESVRND, the abundance fitness is -0.084 ± 0.077.

Take YKPCFVCQDKSSGYHYGVSACEGCKGFFRRSIQENMIYTCHRDKNCVINKVTRNRCQYCRLQKCFEVGMSKESVRND: the abundance fitness was 0.169 ± 0.044.

Turning to YKPCFVCQDKSSGYHYGVSACEGCKGFFRRSIQANMIYTCHRDKNCVINKVTRNRCQYCRLQKCFEVGMSKESVRND, the abundance fitness was 0.003 ± 0.042.

Regarding YKPCFVCQDKSSGYHYGVSACEGCKGFFRRSIQWNMIYTCHRDKNCVINKVTRNRCQYCRLQKCFEVGMSKESVRND, the abundance fitness came to 0.05 ± 0.041.

Consider YKPCFVCQDKSSGYHYGVSACEGCKGFFRRSIQHNMIYTCHRDKNCVINKVTRNRCQYCRLQKCFEVGMSKESVRND, for which the abundance fitness was -0.146 ± 0.11.

As to YKPCFVCQDKSSGYHYGVSACEGCKGFFRRSIQMNMIYTCHRDKNCVINKVTRNRCQYCRLQKCFEVGMSKESVRND, the abundance fitness was 0.104 ± 0.051.

Regarding YKPCFVCQDKSSGYHYGVSACEGCKGFFRRSIQLNMIYTCHRDKNCVINKVTRNRCQYCRLQKCFEVGMSKESVRND, the abundance fitness was determined as 0.074 ± 0.04.

Regarding YKPCFVCQDKSSGYHYGVSACEGCKGFFRRSIQRNMIYTCHRDKNCVINKVTRNRCQYCRLQKCFEVGMSKESVRND, the abundance fitness was -0.122 ± 0.035.

In the case of YKPCFVCQDKSSGYHYGVSACEGCKGFFRRSIQGNMIYTCHRDKNCVINKVTRNRCQYCRLQKCFEVGMSKESVRND, the abundance fitness worked out at 0.078 ± 0.03.

As for YKPCFVCQDKSSGYHYGVSACEGCKGFFRRSIMKNMIYTCHRDKNCVINKVTRNRCQYCRLQKCFEVGMSKESVRND, the abundance fitness was determined as 0.136 ± 0.051.

Turning to YKPCFVCQDKSSGYHYGVSACEGCKGFFRRSITKNMIYTCHRDKNCVINKVTRNRCQYCRLQKCFEVGMSKESVRND, the abundance fitness is -0.15 ± 0.074.

For YKPCFVCQDKSSGYHYGVSACEGCKGFFRRSIVKNMIYTCHRDKNCVINKVTRNRCQYCRLQKCFEVGMSKESVRND, the abundance fitness was 0.045 ± 0.039.

On to YKPCFVCQDKSSGYHYGVSACEGCKGFFRRSICKNMIYTCHRDKNCVINKVTRNRCQYCRLQKCFEVGMSKESVRND, for which the abundance fitness is -0.225 ± 0.087.

As to YKPCFVCQDKSSGYHYGVSACEGCKGFFRRSIAKNMIYTCHRDKNCVINKVTRNRCQYCRLQKCFEVGMSKESVRND, the abundance fitness worked out at 0.105 ± 0.043.

The values above are taken from the Human Domainome abundance scans (Beltran et al. 2025).
